{"source": "patent US20060223158", "proteins": {"B1": {"name": "Myc-tagged MM2-CK1ε (S323A/T325A/T334A/T337A/S368A/S405A/T407A/S408A), expressed in N2a cells from pCS-Myc-MM2-CK1ε (protein)", "chain": "MELRVGNKYRLGRKIGSGSFGDIYLGANIASGEEVAIKLECVKTKHPQLHIESKFYKMMQGGVGIPSIKWCGAEGDYNVMVMELLGPSLEDLFNFCSRKFSLKTVLLLADQMISRIEYIHSKNFIHRDVKPDNFLMGLGKKGNLVYIIDFGLAKKYRDARTHQHIPYRENKNLTGTARYASINTHLGIEQSRRDDLESLGYVLMYFNLGSLPWQGLKAATKRQKYERISEKKMSTPIEVLCKGYPSEFSTYLNFCRSLRFDDKPDYSYLRQLFRNLFHRQGFSYDYVFDWNMLKFGAARNPEDVDRERREHEREERMGQLRGAAARALPPGPPAGAAANRLRSAAEPVASTPASRIQPAGNTSPRAIARVDRERKVSMRLHRGAPANVSSSDLTGRQEVSRIPAAQAAVPFDHLGK"}}, "molecular_target": "T1, purified DARPP-32", "T1 sequence (Q9UD71 1-204, species assumed, looked up)": "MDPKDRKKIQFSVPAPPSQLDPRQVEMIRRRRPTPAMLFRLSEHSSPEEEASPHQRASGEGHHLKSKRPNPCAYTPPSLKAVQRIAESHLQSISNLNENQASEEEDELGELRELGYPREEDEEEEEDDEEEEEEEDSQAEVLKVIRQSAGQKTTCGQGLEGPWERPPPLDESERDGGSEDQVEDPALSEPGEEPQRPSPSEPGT", "data": [{"protein": "B1", "values": [{"measurement": "kinase activity of the immunoprecipitated enzyme with DARPP-32 as substrate, against HA-CK1ε", "value": "approximately 2-fold more active than HA-CK1ε in the absence of DHPG"}]}]}
